Experiments:
[1] = biological target: T1, StrepII-tagged human ROR1 extracellular domain (human, UniProt Q01973 30-406); assay: SPR (Biacore T200); mAb captured by goat anti-human Fcγ IgG on CM5; ROR1-strep as analyte (Example 8); second of two independent measurements; batch of the parental IgG not stated
T1 construct: extracellular domain; also called ROR1-strep; strep-tagged human ROR1
Experimental: (§1) Affinity screening was then performed to select the best binders. Affinities were determined using a Biacore T200 instrument (GE Healthcare, Buckinghamshire, UK) and data was evaluated using Biacore Evaluation T200 V2.0 software. To capture mAbs, goat α-human Fc-gamma-specific IgG (Jackson ImmunoResearch, #109-005-098) was covalently immobilized on a CM5 chip (GE Healthcare, #BR-1005-30).
Briefly, for capturing mAbs in HEK293T supernatants, the undiluted supernatants were captured with a flow of 30 μl/min for 120 s.

[2] = biological target: T2, human ROR2 on HEK293 cells (cell microarray) (human, UniProt Q01974 34-943); assay: cell microarray (Retrogenix): fixed HEK293 cells over-expressing the protein; AlexaFluor647 anti-human IgG Fc detection
T2 construct: whole, on cells; Expressed on fixed HEK293 cells of the Retrogenix microarray
T2 sequence (Q01974 34-943): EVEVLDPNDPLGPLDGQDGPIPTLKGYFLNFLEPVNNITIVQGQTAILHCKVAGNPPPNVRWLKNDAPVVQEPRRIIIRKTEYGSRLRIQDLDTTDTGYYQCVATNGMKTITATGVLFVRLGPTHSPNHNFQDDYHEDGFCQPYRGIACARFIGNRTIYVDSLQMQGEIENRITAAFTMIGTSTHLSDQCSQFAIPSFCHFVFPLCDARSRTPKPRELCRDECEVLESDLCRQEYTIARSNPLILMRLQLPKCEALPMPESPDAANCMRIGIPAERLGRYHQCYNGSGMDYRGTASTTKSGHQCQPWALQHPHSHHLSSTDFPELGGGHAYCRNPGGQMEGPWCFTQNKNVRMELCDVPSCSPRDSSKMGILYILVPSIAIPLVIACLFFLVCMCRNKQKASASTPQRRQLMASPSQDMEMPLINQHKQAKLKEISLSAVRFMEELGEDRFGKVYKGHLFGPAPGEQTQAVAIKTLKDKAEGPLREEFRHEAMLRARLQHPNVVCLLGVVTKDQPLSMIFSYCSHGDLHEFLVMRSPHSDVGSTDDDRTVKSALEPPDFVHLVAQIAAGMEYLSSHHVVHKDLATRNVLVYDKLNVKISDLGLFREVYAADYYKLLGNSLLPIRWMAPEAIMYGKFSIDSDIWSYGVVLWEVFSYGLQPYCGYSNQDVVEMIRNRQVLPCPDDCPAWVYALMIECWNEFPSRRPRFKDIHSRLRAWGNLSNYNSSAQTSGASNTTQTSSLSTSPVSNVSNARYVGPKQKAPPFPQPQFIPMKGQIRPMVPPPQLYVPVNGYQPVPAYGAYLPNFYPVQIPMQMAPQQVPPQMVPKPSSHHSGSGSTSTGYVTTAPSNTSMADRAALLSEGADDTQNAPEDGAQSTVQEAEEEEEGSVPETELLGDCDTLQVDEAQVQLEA
Experimental: (§2) ZsGreen1 signals on the left indicate the expression levels of the various human membrane proteins.
(§3) FIG. 28 provides an overview of the Retrogenix Cell Microarray Platform. […] An AlexaFluor647 anti-human IgG Fc detection antibody was used. Primary hits (duplicate spots) were identified by analyzing fluorescence (AlexaFluor647 and ZsGreen1) on ImageQuant. Vectors encoding all hits were sequenced to confirm their correct identities. […] Slides were analyzed as before (FIG. 29).

[3] = biological target: T3, human CD20 on HEK293 cells (cell microarray) (human, UniProt P11836 1-297); assay: as above
T3 construct: whole, on cells; Expressed on fixed HEK293 cells of the Retrogenix microarray
T3 sequence (looked up): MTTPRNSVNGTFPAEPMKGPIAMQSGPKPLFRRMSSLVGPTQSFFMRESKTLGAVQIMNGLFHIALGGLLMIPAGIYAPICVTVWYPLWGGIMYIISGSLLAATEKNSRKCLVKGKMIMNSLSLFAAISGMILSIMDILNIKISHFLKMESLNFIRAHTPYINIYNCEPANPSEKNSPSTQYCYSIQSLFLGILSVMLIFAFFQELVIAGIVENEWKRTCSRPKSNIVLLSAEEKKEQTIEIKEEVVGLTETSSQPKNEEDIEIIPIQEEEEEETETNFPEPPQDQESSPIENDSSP
Experimental: as §2, §3

hROR2-ECD-HIS = biological target: T4, hROR2-ECD-HIS (human, UniProt Q01974); assay: Western blot of denatured, reduced samples; anti-human Fcγ-HRP
T4 construct: extracellular domain; also called hROR2-His; purified extracellular domain of hROR2
T4 sequence (Q01974 34-403): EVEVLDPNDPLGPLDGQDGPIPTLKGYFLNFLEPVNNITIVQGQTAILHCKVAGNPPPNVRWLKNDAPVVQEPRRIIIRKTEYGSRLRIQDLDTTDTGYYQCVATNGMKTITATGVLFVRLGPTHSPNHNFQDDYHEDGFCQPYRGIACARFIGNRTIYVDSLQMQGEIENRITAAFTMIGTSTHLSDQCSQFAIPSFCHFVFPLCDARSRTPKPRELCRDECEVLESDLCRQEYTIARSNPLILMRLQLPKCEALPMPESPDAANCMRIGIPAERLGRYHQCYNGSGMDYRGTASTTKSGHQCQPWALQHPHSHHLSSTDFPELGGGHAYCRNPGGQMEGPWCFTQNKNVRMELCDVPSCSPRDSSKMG
Excerpt: The Western blots contained the following samples as indicated: Lane 1: K562 cells ectopically expressing full length of hROR1. Lane 2: untransfected K62 cells. Lane 3: purified extracellular domain of hROR1. Lane 4: purified extracellular domain of hROR2.
Western blotting: Cells or proteins were lysed by 1× sample buffer (containing 1% β-mercaptoethanol) and boiled before running on NuPAGE Novex 4-12% Bis-Tris gels (Invitrogen).

[4] = biological target: T1, StrepII-tagged human ROR1 extracellular …; assay: SPR (Biacore T200); mAb captured by goat anti-human Fcγ IgG on CM5; ROR1-strep as analyte (Example 8); first of two independent measurements; batch of the parental IgG not stated
Experimental: as §1

hROR2 = biological target: T5, hROR2 (human, UniProt Q01974); assay: flow cytometry on T47D cells (ROR2 positive, ROR1 negative); APC goat anti-human Fcγ
T5 construct: full length, on the cell surface; also called 63-12 / hROR2; ROR2 on T47D cells
T5 sequence (Q01974 34-943 limits assumed): as the sequence (Q01974 34-943) above
Experimental: Flow cytometry: Cells were stained using standard flow cytometry methodology. Briefly, for purified anti-ROR1 Fab (FIG. 3), 0.1-1×10⁶ cells were stained with 1000 ng/100 μL of Fab on ice for 1 h. After washing twice with ice-cold flow cytometry buffer (PBS containing 1% (v/v) BSA, 0.1% sodium azide and 1 mM EDTA), the cells were incubated with a 1:1000 dilution of a mouse anti-His tag mAb conjugated to Alexa Fluor 488 (Qiagen) in 100 μL flow cytometry buffer on ice for 30 min. For purified anti-ROR1 IgG1 (FIG. 8), 0.1-1×10⁶ cells were blocked by 4% goat serum for 15 min at room temperature and then incubated with 100 ng/100 μL of IgG on ice for 1 h. After washing twice with ice-cold flow cytometry buffer, cells were stained with a 1:500 dilution of goat anti-human IgG, Fcγ pAbs conjugated to APC (Jackson ImmunoResearch) in 100 μL flow cytometry buffer on ice for 30 min. For commercial goat anti human ROR1 polyclonal antibody (FIG. 8), 0.1-1×10⁶ cells were stained with 200 ng/100 μL of Ab on ice for 1 h. […] Finally, 4′,6-diamidino-2-phenylindole (DAPI) was added to a final concentration of 100 ng/mL to exclude dead cells from the analysis. Cells were analyzed using a FACSCalibur instrument (BD Biosciences) and FlowJo analytical software (Tree Star, Ashland, Oreg.).

T1 sequence (Q01973 other isoform, or with tags, fused parts or gaps): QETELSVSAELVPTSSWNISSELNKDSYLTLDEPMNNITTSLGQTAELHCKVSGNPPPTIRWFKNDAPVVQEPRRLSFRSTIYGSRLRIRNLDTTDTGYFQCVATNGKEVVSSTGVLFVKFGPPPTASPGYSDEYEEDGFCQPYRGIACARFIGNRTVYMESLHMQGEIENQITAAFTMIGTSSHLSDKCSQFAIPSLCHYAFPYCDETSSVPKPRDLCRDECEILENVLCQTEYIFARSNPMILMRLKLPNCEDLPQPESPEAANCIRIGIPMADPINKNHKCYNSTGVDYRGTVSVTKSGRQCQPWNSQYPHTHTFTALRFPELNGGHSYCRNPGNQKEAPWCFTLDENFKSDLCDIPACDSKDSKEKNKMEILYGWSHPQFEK

Kd [1]: 5.1 nM | koff [1]: 0.00556 s⁻¹ | kon [1]: 1.1e+06 M⁻¹ s⁻¹ | binding result [2]: no binding (tested: 20 µg/mL) | binding result [3]: no binding (tested: 20 µg/mL) | binding result (hROR2-ECD-HIS): no binding (tested: 2 µg/mL) | Kd [4]: 5.1 nM | koff [4]: 0.00591 s⁻¹ | kon [4]: 1.16e+06 M⁻¹ s⁻¹ | binding result (hROR2): no binding (tested: 100 ng/100 µL)
B1: XBR1-402 chimeric rabbit/human IgG1 (antibody, V domains shown)
VH: QEQQKESGGGLFKPTDTLTLTCTASGFDISSYYMSWVRQAPGNGLEWIGAIGISGNAYYASWAKSRSTITRNTNLNTVTLKMTSLTAADTATYFCARDHPTYGMDLWGPGTLVTVSS
VL: SYELTQLPSVSVSLGQTARITCEGNNIGSKAVHWYQQKPGLAPGLLIYDDDERPSGVPDRFSGSNSGDTATLTISGAQAGDEADYYCQVWDSSAYVFGGGTQLTVTG
notes: Rabbit variable domains on human IgG1 constant regions (vector PIGG), lambda light chain, from HEK 293F cells, Protein A purified

From patent US20220153839A1 (NBE THERAPEUTICS, published 2022)
